± gives the standard deviation of the averaged measurements.
What was measured:
[1] = system: VchCAST RNA-guided transposition machinery (E. coli BL21(DE3) host, lacZ target); assay: relative integration efficiency (T-LR orientation) vs wild-type transposon end (log2 (normalized fold change)); transposon end mutated: right end (5 bp flank + 75 bp right end); higher = more efficient transposition
Summary of the method: (§1)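 Barcoded pools of 1549 left-end or 1849 right-end transposon variants were cloned into a pUC57 mini-transposon donor. Each pool was co-transformed with a T7-driven effector plasmid (CRISPR array, tniQ-cas8-cas7-cas6, tnsA-tnsB-tnsC) into E. coli BL21(DE3) and plated with 0.1 mM IPTG at 37°C for 18 h. Input plasmids and genomic integration junctions were PCR-amplified and Illumina-sequenced, with two biological output replicates and four wild-type barcodes as reference. Relative integration efficiency is output/input barcode abundance fold change, normalised to wild-type barcodes and log-transformed.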

[2] = system: VchCAST RNA-guided transposition machinery (E. coli BL21(DE3) host, lacZ target); assay: relative integration efficiency (T-RL orientation) vs wild-type transposon end (log2 (normalized fold change)); transposon end mutated: right end (5 bp flank + 75 bp right end); higher = more efficient transposition
Summary of the method: as §1

Row | Sequence | relative integration efficiency (log2) [1] | relative integration efficiency (log2) [2]
1 | ACATTTGTTGATACAACCATAAAATGATAATTACACCCATAAATTGATAATTATCACACCCATAAATTGATATTGCCTCTGATCATAGTCAGCTGAAGCGAGACACCGACCAACATTGCACCGACAC | -0.204 ± 0.33 | -0.174 ± 0.19
2 | ACATTTGTTGATACAACCATAAAATGATAATTACACCCATAAATTGATAATTATCACACCCATAAATTGATATTGCCTCTGATCATAGTCCAACCATAAAATGATAATTAAGACCAAGCACCGACAC | -0.498 ± 1.1 | -0.312 ± 0.44
3 | ACATTTGTTGATACAACCATAAAATGATAATTACACCCATAAATTGATAATTATCACACCCATAAATTGATATTGCCTCTGATCATAGTCGAACTAGTTAACTAGTACGCTCAGACCGCACCGACAC | 0.192 ± 0.2 | -0.00349 ± 0.18
4 | ACATTTGTTGATACAACCATAAAATGATAATTACACCCATAAATTGATAATTATCACACCCATAAATTGATATTGCCTCTGATCATAGTCTGTGATTGTTATCACATTTCAGACCAAGCACCGACAC | 0.209 ± 0.1 | -0.0662 ± 0.076
5 | ACATTTGTTGATACAACCATAAAATGATAATTACACCCATAAATTGATAATTATCACACCCATAAATTGATATTGCCTCTGATCATAGTCTTGTGAGCGGATAACAAAGACCAACATGCACCGACAC | -0.0553 ± 0.18 | 0.141 ± 0.16
6 | ACATTTGTTGATACAACCATAAAATGATAATTACACCCATAAATTGATAATTATCACACCCATAAATTGATATTGCCTCTGATCATATTTAATAATTAATTTATATATTTAAGTCAGGCACCGACAC | 0.961 ± 0.58 | 0.707 ± 0.19
7 | ACATTTGTTGATACAACCATAAAATGATAATTACACCCATAAATTGATAATTATCACACCCATAAATTGATATTGCCTCTGATCATCAACCATAAAATGATAATTAAGTCAGACCAAGCACCGACAC | 0.201 ± 0.068 | 0.146 ± 0.35
8 | ACATTTGTTGATACAACCATAAAATGATAATTACACCCATAAATTGATAATTATCACACCCATAAATTGATATTGCCTCTGATCATGGTGTCTCGCTTCAGCAGTCAGACCAACATTGCACCGACAC | -0.507 ± 0.025 | -0.125 ± 0.18
9 | ACATTTGTTGATACAACCATAAAATGATAATTACACCCATAAATTGATAATTATCACACCCATAAATTGATATTGCCTCTGATCATTTACTTTTGGTTACATATTTAGTCAGACCAAGCACCGACAC | 0.713 ± 0.049 | 0.0213 ± 0.19
10 | ACATTTGTTGATACAACCATAAAATGATAATTACACCCATAAATTGATAATTATCACACCCATAAATTGATATTGCCTCTGATCATTTGCATAAAAATTCATCTAGTCAGACCAACAGCACCGACAC | -0.0028 ± 0.22 | -0.15 ± 0.36
11 | ACATTTGTTGATACAACCATAAAATGATAATTACACCCATAAATTGATAATTATCACACCCATAAATTGATATTGCCTCTGATCCAACCATAAAATGATAATTAATAGTCAGACCAAGCACCGACAC | 0.046 ± 0.066 | 0.156 ± 0.25
12 | ACATTTGTTGATACAACCATAAAATGATAATTACACCCATAAATTGATAATTATCACACCCATAAATTGATATTGCCTCTGATCGTTTTAAGGATGACTTCAGTCGCGCCGTACTTCGCACCGACAC | -0.209 ± 0.13 | -0.207 ± 0.2
13 | ACATTTGTTGATACAACCATAAAATGATAATTACACCCATAAATTGATAATTATCACACCCATAAATTGATATTGCCTCTGCAACCATAAAATGATAATTAATCATAGTCAGACCAAGCACCGACAC | -0.129 ± 0.36 | -0.336 ± 0.3
14 | ACATTTGTTGATACAACCATAAAATGATAATTACACCCATAAATTGATAATTATCACACCCATAAATTGATATTGCCTCTGGCGCTCTGTACCCCGCTCGGTCCTCCCGCGCATCGCGCACCGACAC | -0.0593 ± 0.17 | 0.194 ± 0.14
15 | ACATTTGTTGATACAACCATAAAATGATAATTACACCCATAAATTGATAATTATCACACCCATAAATTGATATTGCCTCTGGCTAGCACTATACCTAGGACTGAGCTAGCCGTCAACGCACCGACAC | 0.877 ± 0.31 | -4.7 ± 0.55
16 | ACATTTGTTGATACAACCATAAAATGATAATTACACCCATAAATTGATAATTATCACACCCATAAATTGATATTGCCTCTGGCTAGCATTATACCTAGGACTGAGCTAGCTGTCAACGCACCGACAC | 1.91 ± 0.064 | -2.99 ± 0.27

Row | Sequence | relative integration efficiency (log2) [1] | relative integration efficiency (log2) [2]
17 | ACATTTGTTGATACAACCATAAAATGATAATTACACCCATAAATTGATAATTATCACACCCATAAATTGATATTGCCTCTGGCTAGCATTGTACCTAGGACTGAGCTAGCCATAAACGCACCGACAC | 0.293 ± 0.3 | -0.0442 ± 0.11
18 | ACATTTGTTGATACAACCATAAAATGATAATTACACCCATAAATTGATAATTATCACACCCATAAATTGATATTGCCTCTGTACCGTTCGTATAATGTATGCTATACCAAGTTATTCGCACCGACAC | -0.0326 ± 0.059 | -0.351 ± 0.19
19 | ACATTTGTTGATACAACCATAAAATGATAATTACACCCATAAATTGATAATTATCACACCCATAAATTGATATTGCCTCTGTACCGTTCGTATACGATACATTATACGAAGTTATTCGCACCGACAC | 1.66 ± 0.14 | -1.24 ± 0.29
20 | ACATTTGTTGATACAACCATAAAATGATAATTACACCCATAAATTGATAATTATCACACCCATAAATTGATATTGCCTCTGTACGATCCAGTGATCTCCAAGACGCTGCAAGAGTCCGCACCGACAC | -0.117 ± 0.38 | 0.0556 ± 0.23
21 | ACATTTGTTGATACAACCATAAAATGATAATTACACCCATAAATTGATAATTATCACACCCATAAATTGATATTGCCTCTGTTGACAGCTAGCTCAGTCCTAGGTATAATGCTAGCCGCACCGACAC | 0.147 ± 0.2 | -0.0954 ± 0.038
22 | ACATTTGTTGATACAACCATAAAATGATAATTACACCCATAAATTGATAATTATCACACCCATAAATTGATATTGCCTCTGTTGACGGCTAGCTCAGTCCTAGGTATAGTGCTAGCCGCACCGACAC | -0.517 ± 0.3 | -0.43 ± 0.065
23 | ACATTTGTTGATACAACCATAAAATGATAATTACACCCATAAATTGATAATTATCACACCCATAAATTGATATTGCCTCTGTTGGCGCCCGGCCCTCAGGCCCTGCAGTGAGTTCCAGCACCGACAC | 0.0708 ± 0.019 | 0.121 ± 0.15
24 | ACATTTGTTGATACAACCATAAAATGATAATTACACCCATAAATTGATAATTATCACACCCATAAATTGATATTGCCTCTGTTTATGGCTAGCTCAGTCCTAGGTACAATGCTAGCCGCACCGACAC | -0.0571 ± 0.23 | -0.0948 ± 0.31
25 | ACATTTGTTGATACAACCATAAAATGATAATTACACCCATAAATTGATAATTATCACACCCATAAATTGATATTGCCTCTTAACACCCGTATTACTTCATAATCGTTTGTAATTCAAGCACCGACAC | 1.41 ± 0.25 | -0.169 ± 0.26
26 | ACATTTGTTGATACAACCATAAAATGATAATTACACCCATAAATTGATAATTATCACACCCATAAATTGATATTGCCTCTTCATGCAGATTTGAACAGTAAGTTTACGACATTTTCAGCACCGACAC | 1.32 ± 0.14 | -0.604 ± 0.37
27 | ACATTTGTTGATACAACCATAAAATGATAATTACACCCATAAATTGATAATTATCACACCCATAAATTGATATTGCCTCTTCATGCAGATTTGAACAGTTTCAAATGCTGATTTTCAGCACCGACAC | 0.372 ± 0.19 | 0.29 ± 0.31
28 | ACATTTGTTGATACAACCATAAAATGATAATTACACCCATAAATTGATAATTATCACACCCATAAATTGATATTGCCTCTTCATGGTCTAAACTTCAGTAAGTTTACGACATTTTCAGCACCGACAC | 1.44 ± 0.19 | -0.93 ± 0.4
29 | ACATTTGTTGATACAACCATAAAATGATAATTACACCCATAAATTGATAATTATCACACCCATAAATTGATATTGCCTCTTCATGGTCTAAACTTCAGTCCTGGGCATCAATTTTCAGCACCGACAC | -0.163 ± 0.029 | 0.135 ± 0.16
30 | ACATTTGTTGATACAACCATAAAATGATAATTACACCCATAAATTGATAATTATCACACCCATAAATTGATATTGCCTCTTCATGGTCTAAACTTCAGTTTCAAATGCTGATTTTCAGCACCGACAC | 0.262 ± 0.23 | 0.164 ± 0.26
31 | ACATTTGTTGATACAACCATAAAATGATAATTACACCCATAAATTGATAATTATCACACCCATAAATTGATATTGCCTCTTCATGTGAGCCCAGGCAGTAAGTTTACGACATTTTCAGCACCGACAC | 2.37 ± 0.34 | -1.91 ± 0.27
32 | ACATTTGTTGATACAACCATAAAATGATAATTACACCCATAAATTGATAATTATCACACCCATAAATTGATATTGCCTCTTCATGTGAGCCCAGGCAGTCCTGGGCATCAATTTTCAGCACCGACAC | 0.0484 ± 0.15 | -0.116 ± 0.3

— the supplement of paper PMC10201428
